Source: publication PMC9101108, “Shifting CCR7 towards Its Monomeric Form Augments CCL19 Binding and Uptake” (Cells, 2022)

T1: human CCR7 L325S fused to YPet (human, UniProt P32248 25-378, L325S)
T1 construct: chemokine receptor CCR7, human (hCCR7), point mutant L325S; also called hCCR7-YPet L325S; source: HeLa, transiently transfected (pcDNA3 hCCR7-YPet L325S), on cells; not shown: YPet, C-terminal, kept
T1 sequence (looked up): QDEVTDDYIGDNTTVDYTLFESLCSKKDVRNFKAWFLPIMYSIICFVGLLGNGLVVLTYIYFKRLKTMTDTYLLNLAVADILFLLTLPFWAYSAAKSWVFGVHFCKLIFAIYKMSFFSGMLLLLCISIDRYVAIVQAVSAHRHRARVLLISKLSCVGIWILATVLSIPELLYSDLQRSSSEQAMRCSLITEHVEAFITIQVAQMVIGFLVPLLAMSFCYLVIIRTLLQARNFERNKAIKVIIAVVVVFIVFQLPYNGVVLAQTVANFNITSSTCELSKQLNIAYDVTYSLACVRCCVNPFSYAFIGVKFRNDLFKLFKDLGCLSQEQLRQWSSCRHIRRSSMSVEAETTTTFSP

T2: human CCR7 A315G fused to YPet (human, UniProt P32248 25-378, A315G)
T2 construct: chemokine receptor CCR7, human (hCCR7), point mutant A315G; also called hCCR7-YPet A315G; source: HeLa, transiently transfected (pcDNA3 hCCR7-YPet A315G), on cells; not shown: YPet, C-terminal, kept
T2 sequence (looked up): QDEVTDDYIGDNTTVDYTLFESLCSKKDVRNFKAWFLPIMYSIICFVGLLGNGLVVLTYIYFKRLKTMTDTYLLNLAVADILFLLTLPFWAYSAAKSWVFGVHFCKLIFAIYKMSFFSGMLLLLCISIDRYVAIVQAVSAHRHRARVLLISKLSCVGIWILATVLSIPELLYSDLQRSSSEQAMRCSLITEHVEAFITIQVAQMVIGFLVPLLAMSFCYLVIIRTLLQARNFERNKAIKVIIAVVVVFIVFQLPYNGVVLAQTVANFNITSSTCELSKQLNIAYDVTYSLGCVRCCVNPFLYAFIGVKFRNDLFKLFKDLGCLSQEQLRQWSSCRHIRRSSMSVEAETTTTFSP

T3: human CCR7 wild-type fused to YPet (hCCR7-YPet) (human, UniProt P32248 25-378)
T3 construct: chemokine receptor CCR7, human (hCCR7); also called CCR7 WT; wild-type CCR7; source: HeLa, transiently transfected (pcDNA3 hCCR7-YPet), on cells; not shown: YPet, C-terminal, kept
T3 sequence (looked up): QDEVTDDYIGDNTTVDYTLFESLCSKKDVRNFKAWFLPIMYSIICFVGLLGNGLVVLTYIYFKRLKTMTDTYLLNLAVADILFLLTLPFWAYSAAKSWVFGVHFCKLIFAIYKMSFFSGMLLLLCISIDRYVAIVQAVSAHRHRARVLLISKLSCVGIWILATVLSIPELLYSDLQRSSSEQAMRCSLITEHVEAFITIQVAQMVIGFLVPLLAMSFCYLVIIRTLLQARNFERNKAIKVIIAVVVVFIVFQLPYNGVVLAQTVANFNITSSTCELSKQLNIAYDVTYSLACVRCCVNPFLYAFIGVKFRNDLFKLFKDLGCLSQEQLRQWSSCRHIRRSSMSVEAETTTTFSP

T4: human CCR7 SNP V317I fused to YPet (human, UniProt P32248 25-378, V317I)
T4 construct: chemokine receptor CCR7, human (hCCR7), naturally occurring SNP V317I; also called CCR7 V317I; hCCR7-YPet V317I; source: HeLa, transiently transfected (pcDNA3 hCCR7-YPet V317I), on cells; not shown: YPet, C-terminal, kept
T4 sequence (looked up): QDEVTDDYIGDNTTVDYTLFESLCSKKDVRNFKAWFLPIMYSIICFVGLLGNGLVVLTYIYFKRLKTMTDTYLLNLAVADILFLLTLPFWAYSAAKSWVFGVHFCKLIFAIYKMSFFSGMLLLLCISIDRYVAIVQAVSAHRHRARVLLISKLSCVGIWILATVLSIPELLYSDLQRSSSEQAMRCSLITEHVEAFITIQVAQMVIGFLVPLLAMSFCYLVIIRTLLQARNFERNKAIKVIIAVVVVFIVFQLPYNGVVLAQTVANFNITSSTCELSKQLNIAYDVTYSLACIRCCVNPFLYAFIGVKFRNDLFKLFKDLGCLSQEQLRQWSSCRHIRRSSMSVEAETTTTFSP


Legend:
Details in all cases: one partner purified
[1] = biological target: T1, human CCR7 L325S fused to YPet; experiment: flow cytometry on cells; HeLa cells transiently expressing YPet-tagged CCR7 variants incubated at 4 °C for indicated times with 25 nM CCL19-S6^649P1, washed, MFI (chemokine binding)
[2] = biological target: T2, human CCR7 A315G fused to YPet; experiment: as above
[3] = biological target: T1, human CCR7 L325S fused to YPet; experiment: flow cytometry on cells; competition: HeLa cells transiently expressing YPet-tagged CCR7 variants, 37 °C, 30 min, 25 nM CCL19-S6^649P1 with graded concentrations of native unlabelled hCCL19; MFI (binding and uptake)
[4] = biological target: T3, human CCR7 wild-type fused to YPet …; experiment: as above
[5] = biological target: T4, human CCR7 SNP V317I fused to YPet; experiment: as above
[6] = biological target: T2, human CCR7 A315G fused to YPet; experiment: as above

fold fluorescence of bound CCL19-S6^649P1 against wild-type CCR7 [1]	fold fluorescence of bound CCL19-S6^649P1 against wild-type CCR7 [2]	Kd [3]	Kd [4]	Kd [5]	Kd [6]	Binder
~2 fold	~2 fold	–	–	–	–	human CCL19-S6 site-specifically labelled with Dy649P1 (hCCL19-S6^649P1) (ligand, UniProt Q99731 22-98, looked up, Dy649P1 covalently and site-specifically attached (CoA-Dy649P1, SFP synthase)) GTNDAEDCCLSVTQKPIPGYIVRNFHYLLIKDGCRVPAVVFTTLRGRQLCAPPDQPWVERIIQRLQRTSAKMKRRSS
–	–	~7 nM	~29 nM	~31 nM	~10 nM	native human CCL19 (hCCL19), unlabelled (ligand, UniProt Q99731 22-98, looked up) GTNDAEDCCLSVTQKPIPGYIVRNFHYLLIKDGCRVPAVVFTTLRGRQLCAPPDQPWVERIIQRLQRTSAKMKRRSS
